Test [1] deals with HLA-DR DRB1*1302 (human). Kind of test: radioligand inhibition, purified HLA-DR.
A further test addresses HLA-DR DRB5*0101 (human). The experiment in a line: radioligand inhibition, purified HLA-DR.
The target of the next test is HLA-DR DRB1*0701 (human). The experiment in a line: radioligand inhibition, purified HLA-DR.
The target of the next test is HLA-DR DRB1*0901 (human). Kind of test: radioligand inhibition, purified HLA-DR.
Test [2] deals with purified HLA-DR molecule DRB1*1302 (human). The experiment in a line: radioligand inhibition, purified HLA-DR.
For test [3], the target named is purified HLA-DR molecule DRB5*0101 (human). Kind of test: radioligand inhibition, purified HLA-DR.
Test [4] deals with purified HLA-DR molecule DRB1*0901 (human). The experiment in a line: radioligand inhibition, purified HLA-DR.
In another test the target is HLA-DR DRB1*1501 (human). The experiment in a line: radioligand inhibition, purified HLA-DR.
The target in the next test is T1, HLA-DR DRB1*0101 (human).
T1 chain 1: not shown
T1 chain 2: not shown
The experiment in a line: radioligand competition, purified HLA-DR. Conditions: remark: other sources report otherwise.

The target in test [5] is at least four different HLA-DR variants (of 15 different purified HLA-DR molecules). The experiment in a line: radioligand inhibition, purified HLA-DR.
In another test the target is T2, HLA-DR DRB1*0802 (human).
T2 chain 1: not shown
T2 chain 2: not shown
Kind of test: radioligand inhibition, purified HLA-DR. As to conditions: remark: other sources report otherwise.

Test [6] deals with T3, HLA-DR DRB1*0401 (human).
T3 chain 1: not shown
T3 chain 2: not shown
The experiment in a line: radioligand competition, purified HLA-DR. As to conditions: remark: other sources report otherwise. For orientation: In a radioligand displacement assay an active substance lowers the binding of a labelled ligand.

For the next test, the target named is T4, HLA-DR DRB1*0405 (human).
T4 chain 1: not shown
T4 chain 2: not shown
Kind of test: radioligand competition, purified HLA-DR. As to conditions: remark: other sources report otherwise.

Test [7] concerns the target T3, HLA-DR DRB1*0401 (human). The experiment in a line: radioligand inhibition, purified HLA-DR. As to conditions: remark: other sources report otherwise.
Test [8] concerns the target T5, HLA-DR DRB1*1302 (human).
T5 chain 1: not shown
T5 chain 2: not shown
The experiment in a line: radioligand inhibition, purified HLA-DR. Conditions: remark: other sources report otherwise.

A further test addresses T6, HLA-DR DRB4*0101 (human).
T6 chain 1: not shown
T6 chain 2: not shown
Kind of test: radioligand inhibition, purified HLA-DR. Conditions: remark: other sources report otherwise.

A further test concerns the target T7, HLA-DR DRB1*0404 (human).
T7 chain 1: not shown
T7 chain 2: not shown
Kind of test: radioligand competition, purified HLA-DR. Conditions: remark: other sources report otherwise.

In general, IC50 refers to the concentration at which inhibition is half-maximal.

Like-named read-outs stand apart in the source and are kept apart here. A value given as a limit tells only on which side of the number the result lay.

For Peptide 9019.0126, CEA.354, the figures for the 50% inhibitory concentration (IC50) with HLA-DR DRB1*1302 (human) [1] and with HLA-DR DRB5*0101 (human) were 1920 nM and 2280 nM, respectively.
On to Peptide 9019.0005, CEA.122, for which the IC50 with HLA-DR DRB1*1302 (human) [1] is 9960 nM; in the test with HLA-DR DRB1*0701 it was 6340 nM.
Molecule Peptide 9019.0118, CEA.176 had an IC50 with HLA-DR DRB1*0901 (human) of 1910 nM.
As for Peptide 9019.0126 (CEA.354), the IC50 in [2] worked out at 1920 nM; in test [3] it was 2280 nM.
In test [4], Peptide 9019.0118 (CEA.176) returned a half-maximal inhibitory concentration (IC50) of 1910 nM.
Peptide 9019.0115, CEA.126: the concentration for half-maximal inhibition (IC50) with HLA-DR DRB1*1302 (human) [1] came to 394 nM; with HLA-DR DRB1*1501 (human), 376 nM.
Peptide 9019.0009, Cyclin D1.129: the IC50 in the test with HLA-DR DRB1*1302 (human) [1] was determined as 3490 nM.
In the test with HLA-DR DRB1*0101 (human), TEILKGGVLIQRNPQ [Peptide 9019.0039] displayed an IC50 of 71 nM.
Still for that read-out and setting: as for CYGLGMEHLREVRAV [Peptide 9019.0044], the figure is 139 nM.
Consider HNQVRQVPLQRLRIV [Peptide 9019.0034, Her2/neu.88], for which the figures for the IC50 (in test [5]; with HLA-DR DRB1*0802 (human)) were below 1000 nM and 95 nM, respectively.
Turning to AQTFVALCATDVKFI [Peptide 9019.0168, Cyclin D1.182], the IC50 in test [5] is below 1000 nM.
With KLCIYTDNSIRPEEL [Peptide 9019.0159], the 50% inhibitory concentration (IC50) was 95 nM in the test with HLA-DR DRB1*0401 (human) [6] and 3170 nM with HLA-DR DRB1*0405 (human).
KELAVFREKVTEQHR [9019.0186]: the IC50 with HLA-DR DRB1*0401 (human) [7] worked out at 21 nM.
In the test with HLA-DR DRB1*1302 (human) [8], TTPVTGASPGGLREL [Peptide 9019.0037, Her2/neu.126] registered an IC50 of 605 nM.
For the molecule GYVIGTQQATPGPAY [9019.0110], the IC50 in the test with HLA-DR DRB4*0101 (human) was 6.3 nM. In other words, the single-digit nanomolar range.
GTDMKLRLPASPETH [Peptide 9019.0027, Her2/neu.28] registered an IC50 with HLA-DR DRB1*0701 of 6810 nM.
Turning to SDSVILNVLYGPDAP [Peptide 9019.0119], the IC50 with HLA-DR DRB1*0405 (human) came to 1450 nM. This counts as single-digit micromolar.
As for VCGIQNSVSANRSDP [Peptide 9019.0135], the half-maximal inhibitory concentration (IC50) stood at 26 nM in the test with HLA-DR DRB1*0404 (human) and 1850 nM with HLA-DR DRB1*0405 (human).

For the origin of these results see patent US20170342126A1 (MAYO FOUNDATION FOR MEDICAL EDUCATION AND RESEARCH, published 2017).
